According to US20140296492A1:

Molecular target: HLA-A2-… complex on cells (human)
Assay: cell-based or functional assay

Which blocking of WT1 Clone 45 CAR-mediated cytotoxicity against …-pulsed DIMT BLCL (51Cr release), antibody at 5 µg/ml does the source give for anti-HLA-A2 antibody BB7.2 here?
The blocking of WT1 Clone 45 CAR-mediated cytotoxicity against …-pulsed DIMT BLCL (51Cr release), antibody at 5 µg/ml was 45%.
